From patent US20190161539A1 come the findings set out here.

In test [1] the target is β-amyloid peptide (1-42) conjugated to BSA. Briefly: competition ELISA on coated Aβ1-42-BSA against biotinylated Mu266, first set of three experiments.
Test [2] has the same target. Briefly: competition ELISA on coated Aβ1-42-BSA against biotinylated Mu266, second set of three experiments.
The target in test [3] is Aβ 1-40 peptide (human). Briefly: KinExA 3000, equilibrium in solution with human soluble Abeta (1-40), 37° C.

For Mouse monoclonal antibody 266 (Mu266), the IC50 in test [1] was 4.7 µg/mL; in test [2] it was 3.87 µg/mL.

In test [3], m266-Fab registered a Kd of 0.24 nM.
